Data as given in US5686073.

Assays:
dystrophin (rabbit) [1] = experiment: co-immunoprecipitation with dystrophin on XIXC2-Sepharose from untreated complex
[2] = biological target: 50 kDa dystrophin-associated glycoprotein (rabbit); experiment: co-immunoprecipitation with the 50 kDa glycoprotein on IVD31-Sepharose from alkaline-treated complex
[3] = biological target: 50 kDa dystrophin-associated glycoprotein (rabbit); experiment: co-immunoprecipitation with the 50 kDa glycoprotein on IVD31-Sepharose from untreated complex
dystrophin (rabbit) [4] = experiment: co-immunoprecipitation with dystrophin on XIXC2-Sepharose from alkaline-treated complex

| Molecule | percent immunoprecipitated (dystrophin (rabbit) [1]) | percent immunoprecipitated [2] | percent immunoprecipitated [3] | percent immunoprecipitated (dystrophin (rabbit) [4]) |
| --- | --- | --- | --- | --- |
| 43 kDa dystrophin-associated glycoprotein (from UniProt Q28685) | 96% | 96% | 96% | – |
| dystrophin | – | – | 99% | – |
| 50 kDa dystrophin-associated glycoprotein (protein) GPGGTEAQQTTLYPLVGRVFVHTLEPASFLHLPEHAAPATIPVTYHAHLQGHPDLPRWLRYTQRSPHHPGFLYGAATPEDRGRQVIEVTAYNRDSFDTAGQSLVLLIRDPEGSPLPYQTEFLVRSHDVEEVLPPTPASHFLTALAGLWEPGELKLLNITSALDRGGRVPLPIGGQKEGVYIKVGSASPFSTCLKMVASPDSHARCARGQPPLLSCYDTLAPHFRVDWCNVSLVDTSVPEPVDEVPTPGDGILEHDPFFCPPTEATARDFLADALVTLLVPLLVALLLALLLAYIMCCRREGRLKRDLATSDIQMVHHCTIHENTEELRQMAASREVPRPLFPLPMFNVRTGERMPPRVDSAQVPLILDQH | 96% | – | – | – |

Next, values leading:

| percent immunoprecipitated (dystrophin (rabbit) [1]) | percent immunoprecipitated [2] | percent immunoprecipitated [3] | percent immunoprecipitated (dystrophin (rabbit) [4]) | Molecule |
| --- | --- | --- | --- | --- |
| 96% | 96% | 96% | – | 35 kDa dystrophin-associated glycoprotein |
| 96% | – | 96% | 51% | 59 kDa dystrophin-associated protein |
| 63% | – | 85% | – | 156 kDa dystrophin-associated glycoprotein (from UniProt Q28685) |
